# Experimental data reported in publication PMC11503464, “Copper-61 is an advantageous alternative to gallium-68 for PET imaging of somatostatin receptor-expressing tumors: a head-to-head comparative preclinical study” (Frontiers in Nuclear Medicine, 2024).
# Assays:
# [1] = in vivo; cited from earlier work
# [2] = mouse, in vivo; cited from earlier work
# [3] = assay type: physicochemical; details: pH 7.4
# Description: Briefly, the radiotracer (10 µl, 1 µM) was added to 1 ml of a 1:1 pre-saturated mixture of 1-octanol and phosphate-buffered saline (PBS pH 7.4). The solution was vortexed for 30 min and then centrifuged at 3,000 rpm to achieve phase separation. Aliquots of 0.1 ml from each phase were collected and measured in a γ-counter. The distribution coefficient was calculated as the average of the logarithmic values (n = 3) of the ratio between the radioactivity in the organic and PBS phases. [^68Ga]Ga-DOTA-TOC was used as a reference.
# HEK-SST2 xenografts = details: female, athymic nude-Foxn1^nu/Foxn1^+, mouse, in vivo, 200 pmol, 1 h
# HEK-SST2 cells = assay: Cellular uptake and distribution on intact HEK-SST2 cells; assay type: cell-based, human; details: specific uptake, after 4 h at 37°C
# Description: At the defined time points, the medium was removed, and the cells were washed twice with ice-cold PBS. The cells were then treated twice for 5 min with ice-cold glycine solution (0.05 M, pH 2.8) to detach the cell membrane-bound fraction (acid released). Afterward, the cells containing the internalized fraction were detached using NaOH 1 M at 37°C and collected for measurement. [^68Ga]Ga-DOTA-TOC was evaluated as a reference.
compound,measurement,setting,value
[^68Ga]Ga-DOTA-Tyr^3-octreotate [[^68Ga]Ga-DOTA-TATE],Effective dose,[1],0.021-0.0257 mSv/MBq
same,Kidney dose,[2],9.01 × 10^−2 mGy/MBq
same,Total-body absorbed dose,[2],1.27 × 10^−3 mGy/MBq
"C[C@@H](O)[C@@H]1NC(=O)[C@H](CCCCN)NC(=O)[C@@H](Cc2c[nH]c3ccccc23)NC(=O)[C@H](Cc2ccc(O)cc2)NC(=O)[C@@H](NC(=O)[C@@H](Cc2ccccc2)NC(=O)CN2CCN(CC(=O)O)CCN(CC(=O)O)CCN(CC(=O)O)CC2)CSSC[C@@H](C(=O)N[C@H](CO)[C@@H](C)O)NC1=O [[^68Ga]Ga-DOTA-TOC] [[^68Ga]Ga-DOTA-Tyr^3-octreotide, metal not drawn]",log D(O/PBS pH 7.4),[3],−3.18 ± 0.11
same,Effective dose,[1],0.021-0.0257 mSv/MBq
same,Adrenal uptake,HEK-SST2 xenografts,2.57 ± 0.78 %IA/g
same,Blood uptake,HEK-SST2 xenografts,0.63 ± 0.09 %IA/g
same,Bone uptake,HEK-SST2 xenografts,0.49 ± 0.07 %IA/g
same,Heart uptake,HEK-SST2 xenografts,0.27 ± 0.03 %IA/g
same,Intestine uptake,HEK-SST2 xenografts,1.39 ± 0.28 %IA/g
same,Kidneys uptake,HEK-SST2 xenografts,8.37 ± 0.84 %IA/g
same,Liver uptake,HEK-SST2 xenografts,0.58 ± 0.07 %IA/g
same,Lung uptake,HEK-SST2 xenografts,1.68 ± 0.32 %IA/g
same,Pancreas uptake,HEK-SST2 xenografts,4.77 ± 1.16 %IA/g
same,Pituitary uptake,HEK-SST2 xenografts,3.29 ± 0.63 %IA/g
same,SST2-tumor uptake,HEK-SST2 xenografts,6.64 ± 1.11 %IA/g
same,Stomach uptake,HEK-SST2 xenografts,3.73 ± 0.36 %IA/g
same,Cellular uptake (surface bound + internalized),HEK-SST2 cells,79.0 ± 3.1%
